# Source: patent US20260069656A1, “Nutritive Polypeptides and Formulations Thereof, and Methods of Production and Use Thereof” (Axcella Health Inc., priority 2013, published 2026)
# B1: SEQID-00099: nutritive polypeptide (protein, listed as Thermosynechococcus elongatus)
# chain: MNQSEILEKVKAIVADQLSVDPEKVVPEASFAEDLNADSLDSVELIMALEEEFGVEIPDEEAEKLKTVQDVLDFINNKVAA
# B2: SEQID-00102: nutritive polypeptide (protein, listed as Lactobacillus johnsonii)
# chain: MTEEEIFNKIADMISERFSIDRDKITKDLNFQNDLDADSIDFVELVMDLEDTFGAEIPDDDAEKLQTVGEAVEYIKSHQN
# B3: SEQID-00226: nutritive polypeptide (protein, listed as Bos taurus)
# chain: QLQALQAQLTDTKKKVDDDLGTIENLEEAKKKLLKDVEVLSQRLEEKALAYDKLEKTKTRLQQELDDLLVDLDHQRQIVSNLEKKQKKFDQLLAEEKNIS
# B4: SEQID-00236: nutritive polypeptide (protein, listed as Bos taurus)
# chain: ALQEAHQQTLDDLQAEEDKVNTLTKAKTKLEQQVDDLEGSLEQEKKLRMDLERAKRKLEGDLKLA
# B5: SEQID-00241: nutritive polypeptide (protein, listed as Bos taurus)
# chain: SELKKDIDDLELTLAKVEKEKHATENKVKNLTEEMAGLDETIAKLTKEKKALQEAHQQTLDDLQAEEDKVNTLTKAKTKLEQQVDDLEGSLEQEKKLRMDLERAKRKLEGDLKLA
# B6: SEQID-00265: nutritive polypeptide (protein, listed as Bos taurus)
# chain: SEGDRLRVELAEKANKLQNELDNVSTLLEEAEKKGIKFAKDAAGLESQLQDTQELLQEETRQKLNLSSRIRQLEEERSSLQEQQEEEEEARRSLEKQLQALQAQLTDTKKKVDDDLGTIENLEEAKKKLLKDVEVLSQRLEEKALAYDKLEKTKTRLQQELDDLLVDLDHQRQIVSNLEKKQKKFDQLLAEEKNISARYAEERDRAEAEAREKETKALSLARALEEALEAREEAERQNKQLRADMEDLMSSKDDVGKNVHELEKSKRALE
# B7: SEQID-00269: nutritive polypeptide (protein)
# chain: DLKKKLDDDLGTLENLEELKKKLLKDLELLSQRLEELALAYDKLEKTKTRLQQELDDLLLDLDHQ
# B8: SEQID-00598: nutritive polypeptide naturally produced in Flaxseed, recombinantly expressed in E. coli (protein, listed as Linum usitatissimum)
# chain: MSRRCPGKNAWPELVGKSGNMAAATVERENRNVHAIVLKEGSAMTKDFRCDRVWVIVNDHGVVTSVPHIT
# B9: SEQID-00622: protein of the 168 nutritive polypeptide library (protein, listed as Oryza sativa)
# chain: MASEGAVSPAFAYTVVYVKDVAKSAAFYSAAFGYTVRRLDQSHKWAELESGTTTIAFTPLHQRETDALTGAVQLPDSAGERGPVEICFDYADVDAAYRRAVDSGAVPVSPPEQKSWGQKVGYVRDIDGIIVRMGSHVRA
# modifications: subsp. japonica
# notes: protein of the 168 nutritive polypeptide library
# B10: SEQID-00115: nutritive polypeptide (protein, listed as Sus scrofa)
# chain: EDEDDKTVSDLAVVLFETATLRSGYLLPDTKAYGDRIERMLRLSLNIDPDAKVEEEPEEEPEETTEDTTEDTEQDDDEEMDAGADEEEQETSETSTAEKDE
# Key:
# [1] = Thermostability, ProteoStat Thermal Shift Stability Kit, temperature of aggregation; assay type: physicochemical
# Protocol: Thermostability. The thermostability of proteins in a buffer cocktail of Citric Acid and Dibasic Sodium Phosphate over a pH range of 2.8 to 7.1 (preparation described above in Table E31B) was determined using the ProteoStat® Thermal Shift Stability Kit (Enzo Life Sciences) according to the manufacturer's standard protocol. Briefly, protein solutions (˜10 mg/ml) containing 1× ProteoStat TS Detection Reagent were heated from 25° C. to 95° C. at a rate of 0.5° C. per 30 sec using a real-time PCR (rtPCR) thermocycler (BioRad) equipped with a plate reader (SynergyMx, Biotek) while monitoring the fluorescence with a Texas Red filter.
# [2] = Intact half-life during simulated gastric fluid (SGF) digestion; conditions: for SGF Half-life (t½): SGF pH 1.5, pepsin:polypeptide 1:20 w/w, 37° C., produced in E. coli unless otherwise noted; for Half-life: purified proteins, chip electrophoresis, SGF
# [3] = Solubility of proteins (lyophilized/reconstituted or ultrafiltered); conditions: produced in E. coli unless otherwise noted
# [4] = pH solubility screen in Citric Acid / Dibasic Sodium Phosphate buffers; assay type: physicochemical; conditions: for pH Range where Protein is >80% detected as Soluble and A650 <1 OD: Low: lower pH of range; for pH Range where Protein is >80% detected as Soluble and A650 <1 OD: High: upper pH of range
# Protocol: pH Solubility. […] Protein was either lyophilized and then resuspended in buffer cocktail mixtures, or concentrated and then spiked into buffer cocktail mixtures at a final protein concentration of 5 to 30 mg/ml. As a control, protein was also dissolved in a solution of 8 M urea. Protein solutions were shaken for 10 min at room temperature. Turbidity of proteins was determined by measuring the absorbance of protein solutions at 650 nm. The protein solution was then centrifuged for 10 min at 1100×g to pellet undissolved or precipitated protein. The soluble protein fraction (supernatant) was sampled and protein concentration was measured by one or more of the following methods: Coomassie Plus Protein Assay (Pierce), Chip electrophoresis, gel electrophoresis, and/or absorbance at 280 nm. The pH range over which select proteins remained greater than 80% soluble as determined by Bradford and the A650 value are listed in Table E31C.
Molecule,Tagg (pH 7.1) ([1]; heated from 25° C. to 95° C.),SGF Half-life (t½) [2] [min],Solubility [3] [mg/mL],pH Range where Protein is >80% detected as Soluble and A650 <1 OD: Low [4],pH Range where Protein is >80% detected as Soluble and A650 <1 OD: High [4],also measured
B1,64,1,91,,,
B2,>95,0.6,120,,,
B3,>95,0.7,,2.6,9.1,
B4,,10,60,,,
B5,>95,0.3,,4.3,9.1,
B6,>95,29,95,5.1,9.1,pH Range where Protein is >80% detected as Soluble and A650 <1 OD: Other ([4]; other pH where soluble): 3
B7,>95,41,,7.2,9.1,
B8,,0.5,150,,,Half-life [2]: 0.5 min
B9,,6.6,,2.8,7.1,"Tagg pH 2.8 ([1]; pH 2.8, NS = protein not soluble): 58.5; Tagg pH 3.7 ([1]; pH 3.7, NS = protein not soluble): 42; Tagg pH 3.9 ([1]; pH 3.9, NS = protein not soluble): 42; Tagg pH 4.3 ([1]; pH 4.3, NS = protein not soluble): 43.5; Tagg pH 4.6 ([1]; pH 4.6, NS = protein not soluble): 43.5; Tagg pH 5.0 ([1]; pH 5.0, NS = protein not soluble): 42.5; Tagg pH 5.6 ([1]; pH 5.6, NS = protein not soluble): 45.5; Tagg pH 6.0 ([1]; pH 6.0, NS = protein not soluble): 46; Tagg pH 6.5 ([1]; pH 6.5, NS = protein not soluble): 47; Tagg (pH 7.1) ([1]; heated 25° C. to 95° C., NS = protein not soluble): 95; Half-life [2]: 6.6 min"
B10,,,70,,,
